For 1 substance, stoichiometry N results are on record in PMC6534611.

This assay has as its target Ptch1 variant △893-899/T903A/K904A/Q905A/N1000Q (human) (UniProt Q13635). In words: not stated; Ptch1 variant alone or in complex with ShhNp; Supplementary Fig. 8c.

For the substance “Ptch1 variant △893-899/T903A/K904A/Q905A/N1000Q (from UniProt Q13635 1-1305) (receptor)”, the stoichiometry N (commonly the number of molecules, sites or subunits per partner or assembly) was found to be 4.
